Assay: yeast display, Sf9 membrane polyspecificity reagent, FACS + sequencing; frameworks hold sequencing errors
In short: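 After 36–48 hours of galactose induction, yeast (Saccharomyces cerevisiae BJ5465) displaying a synthetic nanobody library were stained at 4 °C for 1 hour with 10% biotinylated, detergent-solubilized Sf9 membrane reagent. Streptavidin microbeads enriched the stained cells before FACS sorting into low and high (top ~1%) gates on anti-HA and streptavidin fluorescence. Each clone's polyreactivity label reflects its gate of origin.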

| Sequence | polyreactivity (PSR sort gate) |
| --- | --- |
| QVQLVESGGGLVQAGGSLRLSCAASGGTFYLNAMGWYRQAAGKERELVAGISWGGGRTYYADSVKGRFTISRDNAKNTVYLQMNSLKPEDTAVYYCAAGAWRGPYSGYYYWGQGTQVTVSS | low polyreactivity |
| QVQLVESGGGLVQAGGSHRLSCAASGRTFKLYAMGWYRQAPGKERELVAAITESGRSTYYADSVKGRFTFSRDNAKNTVYLQMNSLKPEDTAVYYCAALGIGSYRRYSGYDYWGQGTQVTVSS | low polyreactivity |
| QVQLVESGGGLVQAGGSLRLSCAASGFTFYRYAMGCYRQAPGKERELVAAITSSGGNTYYADSVKGRFTISRDNGKNTVYLQMNSLKPEDTAVYYCAKYTRIRFEYEYWGLGTQVTVSS | high polyreactivity |
| QVQLVESGGGLVQAGGSLRLSCAASGRTFYYAMGWYRPAPGKERELVAGITWSGGSTYYADSVKGRFTISRDNAKNTVYLQMNSLKPEDTAVYYCNAVYRYRTYRYDYWGQGTQVTVSS | high polyreactivity |
| QVQLVESGGGLVQAGGSLRLSCAAYAMGWYRQAPGKERELVAAISSSGGSTYYADSVKGRFTISRDNAKNTVYLQMNSLKPEDTAVYYCARDPDTYFFPPTGYYTSGFDSWGQGTQVTVSS | low polyreactivity |
| QVQLVESGVGLVQAGGSLRLSCAASGSIFYNYAMGWYRQAPGKEREFVAAISWSGDTTYYADSVKGRFTISRDNAKNTVYLQMNSLKPEDTAVYYCAAESYIWFWRPYYYWGQGTQVTLSS | low polyreactivity |
| QVQLVESGGGLVQAGGSLRLSCAASGRTFQSNGMGWYRQAPGKERELVAAITWSSGTTYYADSVKGRFTISRDNAKNTVYLQMNSLKPEDTAVYYCAADWGHWNSLYYSGFGYWGQGTQVTVSS | low polyreactivity |
| QVQLVESGGGLVQAGGSLRLSCAASGIIFYKYAMGSYRQSPWKERELVAVISRGGGSTYYADSVKGRFTISRDNAKNTVYLQMNSLKPEDTAVYYFAADPRVTRSYTYDYWGQGTQVTVSS | high polyreactivity |
| QVQLVESVGGLVQAGGSLRLSCAASGRIFGWYAMGWYRQAPGKERELVAAITSGGTTYYADSVKGRFTISRDNAKNTVYLQMNSLKPEDTAVYYCAKYHWRLSFSRYPYDYWGQGTQVTVSS | high polyreactivity |
| QVQVVESGGGLVQAGGSLRLSCAASGRIFTGYAMGWYSQAPGTERELVAAISRGGSTNYADSVKGRFTISRDNAKNTVYLQMNSLKPEDTAVYYCAAGVHWDRGDYWGQGTQVTVSS | low polyreactivity |
| QVQHVESGGGLVQAGGSLRLSCAASGSTFTGYTMGWYRQAPGKERELVASIRTYYADSVKGRFTISRDNAKNTVYLQMNSLKPEDTAVYYCAADFPSATGGYDYWGQGTQVTVSS | low polyreactivity |
| QVQLVESGGGLVQAGGSLRLSCAASGSIFDSYVMGWYRHAPGKERELVAAITYSGGSTYADSVKGRFTISRDNAQNTVDLQMNSLKPEDTAVYYCAAASSFYLYLLEDYWGQGTQVTVSS | low polyreactivity |
| QVQLVESGGGLVQAGGSLRLSCADSGRTFYPNAMGWYRQAPGKERELVARIRQSGTSTYYADSVKGRFTISRDNAKNTVYLQMNSLKPEDTAVYYCAARYAVGYPPYRYYYWGQGTQVTVSS | high polyreactivity |
| QVQLVESGGGLVQAGGSLRLSCAASGRTFPPYAMGWYRQAPGKERELVAAISRRAGTTYYADSVKGRFTISRDNAKNTVYLQMNSLKPEDTAVYYCAASDHYRWYVHRWEDPFYYWGQGTQVTVSS | low polyreactivity |
| QVQLVESGGGLVQAGGSLRLICAASGLTFFRNAMGWYRQAPGKEREFVAGITSTDGSTYYADSVKGRFTISRDNAKNTVYLQMNSLKPEDTAVYYCAAAYRVRGRTYDSWGQGTQVTVSS | high polyreactivity |
| QVQLVESGGGLVQAGGSLRLSCAASGSTFSPNVMGWYRQAPGKERELVAAISSSTGSTNYADSVKGRFTISRDNAKNTVYLQMNSLKPEDTAVYYCAVDPYVHWTTKLYDYWGQGTQVTVSS | low polyreactivity |
| QVQLVESGGGLVQAGGSLRLSCAASGRTVWGYGMGWYRQAPGKERELVATISSGGSTYYADSVKGRFTISRDNAKNTVYLQMNSLKPEDTAVYYCAARPPRTYWRYQSDYWGLGTQVTVSS | high polyreactivity |
| QVQLVESGGGLVQAGGILRLSCAASGSIYKPNTMGWYRQAPGKERELVAAITRGGRTKYADSVKGRFTISRDNAKNTVYLQMNSLKPEDTAVYYCNKARYTVISYDEYDDWGQGTQVTGSS | high polyreactivity |
| QVQLVESGGGLVQAGGSLRLSCAASGSIFTFYAMGWYRQAPGKERELVATINRIGGNTYYADSVKGRFTISRDNAKNTVYLQMNSLKPEDTAVYYCAAKPTYRGYGYGSWGQGTQVTVSS | low polyreactivity |
| QVQLVESGGGLVQAGGSLRLSCAASGSIFYINAMVWYRPAPGTERELLAAITSGGTYYADSVKGRFTISRDNAKNTVYLQMNSLKPEDTAVDYCAADREGTPLFDYWGQGTQVTVSS | low polyreactivity |
| QDQLVESGGGLVQAGGSLRLSCAASGRTFRSYAMGWSRQAPGKERELVAAISTRGGSTYYADSVKGRFTISRDYAKNTVYLQMNSLKPEDTAVYYCAARGTPSARYGDWGQGTQVTVSS | high polyreactivity |
| QDQLVDSGGGLVQAGGSLRLSCAASGFTFSLNTMGWYRQAPGKERELVAAINSGDSTYADSVKGRFTISRDNAKNTVYLQMNSLKPEETAVYYCNADPDWWYPYNYWGQGTQVTVSS | low polyreactivity |

| Sequence | polyreactivity (PSR sort gate) |
| --- | --- |
| QVQLVESGGALVQAGGSLRLSCAASGRTFWRNTMGWYRQAPGKEREFVAAITFSGVRTYYADSVKGRFTISRDNAKNTVYLQMNSLKPQDTAVYYCAKSRQYIGGFDYWGQGTQVTVSS | high polyreactivity |
| QVQLVESGGGLVQAGGSLRLSCAASGFIFVFNAMGWYRQAPGKERELVAAITWSAGSTYYADSVKGRFTISRDTAKKTVDLQKNSLKPEDTAVYYCAADNWPWPEKPDKSILYDYWGQGTQVTVSS | low polyreactivity |
| QVQLVESGGGLVQAGGSLRLSCAASGSIFISYAMGWYRQAPGKERELVAAISSGGSTNYADSVKGRFTISRDNAKNTVYLQMNSLKPEDTAVYYCAADGWLLSFTGDGWWFDYWGQGTQVTVSS | low polyreactivity |
| QVQLVESGGGLVQAGGSLRLSSAASGSTFFLYGMRWYSQPPGKERQLVAAITWNGGSTSYADSVKGRFTISRDIAKFTVYLQMNSLKPEDTAVYYWAADYYGYFSTAYEYWGQGTQVTVSS | low polyreactivity |
| QVQLVESWGGLVQAAGSLRLSCAASGFIFRYNTMGSSRQAPAKERESVAAFSVSGARTYYADSVKGRFTISRDNAKNTVYLLMNSLKTEDTAVYYCNRRYPFYSRYNNDYWGQGTQVTVSS | high polyreactivity |
| QVQLVESGGGLVQAGGSLRLSCAASGYTFYLYAMGWYRQAPGKERELVAAISTNGGRTYYADSVKGRFTISRDNAKNTVYLQLNSLKPEDTAVYYCAVRSRGTAPQYYYWGQGTQVTVSS | high polyreactivity |
| QVQLVESGGGLVQAGGSLRLSCAASGITFYRYAMGWYRQAPGKERELVAAISASDGSTYYADSVKGRFTISRDHAKNTVYLQMNSLKPEDTAVYYCNARKGYSYGHWGQGTQVTVSS | high polyreactivity |
| HVQLVESGGGLVQAGGSLRLSCAASGRTLRRNAMGWYRQAPGKERELVAAINYSGANTYYADSVKGRFTISRDNAKNTVYLQMNSLKPEDTAVYYCAAASTSYRGISGGDYWGQGTQVTVSS | high polyreactivity |
| QVQLVESGGGLVQAGGSLRLSCAASGITLGTNAMGWYRQAPGKERELVAAIRRSGGSTYYADSVKGRFTISRDNAKNTVYLQMNSLKPEDTAVYYCAAVVSVNMYWGQGTQVTVSS | low polyreactivity |
| QVQLVESGGGLVQAGGSLRLSCAASGRTFYNNAMGWYRQAPGKERELVATINNRGGTTYYADSVKGRFTISRDNAKNTVYLQMNSLKPEDSAVYYCAKSAQRYSYRYYYWGQGTQVTVSS | high polyreactivity |
| QVQLVESGGGLVQAGGSLRISCAASGITFSYYAMGWYTPAPGKERELVAAINSGGGSTYYADSVKGRFTISRDNAKNTVYLQMNSLKPEDTAVYYCSARYRSRYDYYYDRDYWGQGTQVTVSS | low polyreactivity |
| QVQLVESGGGLVQAGGSLRLSCAASGRTLARTALGWYRQAPGKERELVAAISRRAVRTYYADSVKGRFTISRDNAKNTVYLQMNILKPEDTAVYYCYAASSLPGYDYWGQGTQVTVSS | high polyreactivity |
| QVQLVESGGGLVQAGGSLRLSCAASGRTFQYYAMGWYRQAPGKERELVAAITSGGSTYYADSVTGRFTISRDNAKYTVYLQLNSLKPEDTAVYYCDATFYYSGHDDYWGQGTLVTVSS | low polyreactivity |
| QVQLVESGGGLVQAGGTLRLSCAASGLIFGRNAMGWYRQAPGKEREFVATYADSVKGRFTISRYNAKNTVYLQMNSLKPEDTAVYYCATRFVWPSYGYYVQGRFDSWGQGTQVTVSS | low polyreactivity |
| QVQLVESGGGLVQAGGSLRLSCAASGRIFGGYVMGWYRQAPGKERELVAAINGGGGSTYYADSVKGRFTISRDNAKNTVYLQMNSLKPEDTAVYYCMLVKRSQRKSTIDFDYWGQGTQVTVSS | high polyreactivity |
| QVQLVESGGGLVQAGGSLRLSCAASGLIFRRYAMGWYIQAPGKEREFVAAIRYTGGGTYYADSVKGRFTISRDNAKNTVYLQMNRLKPEDTAVYYCNTVEYRWGYISKVPKYDYWGQGTQVTLSS | high polyreactivity |
| QVQLVESGGGLVQAGGSLRLSCAASGSIFGGNTMGWYRQAPGKERELVAAIRYSGGSTYYADSVKGRFTISRDNAKNTVYLQMNSLKPEDTAVYYCATSYRQYGYYWYDYWGQGTQVTVSS | high polyreactivity |
| QVQLVESGGGLVQAGGSLRLSCAASGRIFTYYTMGWYRQAPAKYREFVAAISWSGTSTYYADSVKGRFTISRDNAKNTFYLQMNSLKPEDTAVYYFAARDPPRAGYDYWGQGTHVTVSS | high polyreactivity |
| QVQLVESGGGLVQAGGRLRLSCAASGSTFQRYAMGWYRQAPGKDRELVAAISSTGGSTFYADSVKGRFTISRDTAKNTVYLHMNSLKPEDTAVYYCNKYRATNSARDYWGQGTQVTVSS | high polyreactivity |
| QVQLVESGLGLVQAGASLRVSCAASGSTFIFNTMGWSRQAPGKERELVAAIRLSGGSTYYADSVKGRFTITRDNAKNTVYLQMNSLNPEDTAVYYCARRLATRGHTYDYWGQGTQVTVSS | low polyreactivity |
| QVQLVESGGGLVQAGGSLRLSCAASGSIFGYNTMGWYRQAPGKERELVAAISRGGSTNYADSVKGRFTISRDNAKNTVYLQMNSLKPEDTAVYYCAKRRWRQTTYSKGYDYWGQGTQVTVSS | high polyreactivity |

Source: the nanobody polyreactivity screen of Harvey et al. (2022)
